# Assay results: patent US9777041B2, “Protein nanofibers from self-assembling pentamers” (New York University, priority 2013, dated 2017)
# B1: wt: coiled-coil region of cartilage oligomeric matrix protein with the two cysteines replaced by serines, SEQ ID NO:4 (protein)
# chain: MRGSHHHHHHGSGDLAPQMLRELQETNAALQDVRELLRQQVKEITFLKNTVMESDASGKLN
# modifications: human
# Key:
# [1] = Transmission electron microscopy of protein fibers; type: physicochemical; conditions: for fiber formation seen by TEM: pH 4, 50 mM PB
# Experimental: Transmission electron microscopy: A JEOL JEM-1400 transmission electron microscope (TEM) was used to study the supramolecular protein structure. […] After 1 minute, the grids were blotted using filter paper and rinsed with 3-4 drops Milli Q water to remove excess salts from the buffer. After blotting with filter paper, the sample was negatively stained by adding 3 μL of 1% filtered uranyl acetate, blotted using filter paper, and dried at room temperature for 10-15 minutes. ImageJ software was used to measure the fibers dimensions.
# [2] = ATR-FTIR secondary structure of solid-state protein; type: physicochemical; conditions: 10 μM protein in 50 mM PB
# Experimental: Attenuated Total Reflectance Fourier Transform Infrared Spectroscopy (ATR-FTIR): ATR-FTIR experiments were performed using Perkin Elmer System 2000 FT-IR with DuraSamplIR II T diamond ATR accessory and equipped with a MCT-A detector. Approximately, 5 μL of peptide solution (10 μM in 50 mM PB, pH 4, 8, and 10) was added on the diamond ATR surface. The spectrum (128 scans) was measured at room temperature over a range of 4000-400 cm^−1 with 0.5 cm^−1 resolution. PeakFit software was used to process the data, which involved a 2nd derivative zero baseline correction of the amide I region between 1700-1600 cm^−1 and deconvolution of peaks with a Gaussian function. All readings represent the average of two trials.
# To quantifying the secondary structure of the protein in its solid-state, ATR-FTIR experiments were conducted to evaluate secondary structure of insoluble Q fibers at pH 4, 8, and 10 (Table 8). The frequency measured in the regions of the amide I and amide II absorptions of a protein correlate to the secondary structural motifs within the protein, and were thereby used to assess conformation of the protein in its solid-state (FIGS. 20a-20d). Secondary structure conformation based on ATR-FTIR data for Q in 50 mM PB at pH 4, 8, and 10, and in the presence of curcumin at a 5:1 molar ratio with Q at pH 4 are shown in […]. Percent composition was determined from relative areas of peaks fit to spectra (FIGS. 20a-20d).
# Secondary structure conformation based on ATR-FTIR data for 10 μM protein in 50 mM PB before and after templation of AuNPs is provided in Table 10. Percent composition was determined from relative areas of peaks fit to spectra (see spectra FIGS. 37a-37d, FIGS. 38a-38d).
# [3] = Confocal microscopy of protein fibers in the presence of curcumin; type: physicochemical; conditions: protein:curcumin 1:5, 50 mM phosphate buffer pH 4
# Experimental: FIGS. 7a-7c show confocal microscopy of CC, Q54, and COMPcc^S wt, in the presence of curcumin. The mixture of protein to curcumin were all at a ratio of 1:5. […] All different proteins are in 50 mM phosphate buffer, pH 4. Protein and curcumin samples were combined and incubated for 12 hours prior to imaging. […] The width of COMPcc^S wt shown in FIG. 7c was determined to be 12.72 μm. […] Overall, Q54 fibers appeared to be more uniform in width, as well as more robust and consistent in fiber formation.
# Confocal microscopy: Samples were imaged using a Leica TCS SP2 AOBS confocal microscope system equipped with argon ion and HeNe lasers. A 63×/1.4 NA oil-immersion objective was used for all of the images. Lab-Tek II chambered #1.5 German coverglass system was used as the imaging slide. Curcumin was excited using the 458 nm line of the argon laser, and images were taken with the detection window set between 465 and 560 nm. The pinhole aperture was set at an Airy value of 1.0, which was equivalent to sampling an ˜500 nm vertical z slice of the fiber, as estimated by the axial resolution, rz,confocal≈1.4λcm n/NA^2 (NA, numerical aperture; n, refractive index; λcm, emission wavelength (525 nm)). Interference contrast images were obtained using the Leica tube optics HC 1×/B apparatus with a focusing Bertrand lens. The 3D reconstructions were constructed using ImageJ 64 1.43 in concert with Amira 5.43, employing the Volren 3D rendering routine.
# [4] = Curcumin binding fluorescence; conditions: in the presence of Zn^2+
# Excerpt: FIG. 40. Fluorescence of C and Q or with incorporated trifluoroleucine/TFL (C TFL and Q TFL) in the presence of no metal, Ni (II), or Zn (II) and curcumin. An increase in fluorescence indicates structural stability of the protein as it is able to bind with curcumin, the fluorescent probe in this case.
# [5] = Circular dichroism wavelength scans (secondary structure); type: physicochemical; conditions: for −θ222 × 10^3 / −θmin × 10^3: 10 μM protein; for random coil / α helices / β sheet: CD, K2D method
# Experimental: (§1) Circular dichroism: Circular dichroism (CD) measurements were conducted on a Jasco J-815 CD spectrometer. Wavelength and temperature scans were conducted with 10 μM (6.3×10^−2 mg/mL) protein concentrations. The wavelength spectrum was measured over a range from 190 to 250 nm with a step size of 1 nm Mean residue ellipticity (MRE) was calculated from raw data according to the procedure described in Gunasekar et al. 2009. Secondary structure analysis of α-helical, β-sheet, and random coil content was calculated with the K2D method using DichroWeb software. Temperature scans of each protein were performed over a range of 20-85° C. with a temperature step of 1° C./min at 222 nm. Scans were also performed at of 2° C./min and 5° C./min to evaluate dependence of thermal melt signatures on scan speed. All measurements were made in duplicates of independently prepared proteins and data represents the average. Thermodynamic properties of wt and Q were determined through analysis of thermal melts. A two-state model was used, where assumptions included monophasic behavior and reversible melting behavior. These assumptions were confirmed experimentally by melting (from 20 to 85° C.) and cooling (from 85 to 20° C.) the proteins. Calculation of thermodynamic parameters including Tm, ΔG°, ΔH°, and ΔS° were performed according to the method described by Greenfield.
# To assess the secondary structure of the proteins under acidic as well as neutral and basic conditions in solution, CD measurements were performed. […] The presence of residue P28 towards the center of Q may have influenced the secondary structure, showing decreased helical content when compared to wt at pH 4 and 10 (FIG. 16). The negative control, L, was completely unstructured, devoid of helical content at pH 4 (FIG. 11). […] As the pH increased, the helical content of soluble Q protein increased.
# Mean residual ellipticities from circular dichroism measurements at pH 4, 8, and 10 for wt, L, and Q. The data presented in Table 5 represents the average and standard deviation of at least two replicates.
# [6] = Circular dichroism thermal melts at 222 nm, van't Hoff analysis; type: physicochemical; conditions: for Tm: 10 μM protein; for ΔG° (free energy of folding): at 25° C.; for ΔS°: ΔS° = ΔH°/Tm
# Experimental: as §1
# Thermodynamic properties were assessed via thermal melt of the proteins at 222 nm. Prior to calculating thermodynamic constants, assumptions of monophasic behavior and melt reversibility were confirmed experimentally for wt and Q at all pHs by melting and cooling proteins (FIGS. 18a-18d). The van't Hoff equation was applied to thermal melts of the proteins in the range of 20-85° C.
# [7] = without any evidence for protofibrils; cited from earlier work
Molecule,fiber formation seen by TEM [1],"Random, percent composition ([2]; +AuNP (after templation))","α helix, percent composition ([2]; +AuNP (after templation))","β sheet, percent composition ([2]; +AuNP (after templation))","Random, percent composition ([2]; before templation of AuNPs)","α helix, percent composition ([2]; before templation of AuNPs)","β sheet, percent composition ([2]; before templation of AuNPs)",−θ222 × 10^3 ([5]; pH 4),−θmin × 10^3 ([5]; pH 4),random coil ([5]; pH 4),α helices ([5]; pH 4),β sheet ([5]; pH 4),−θ222 × 10^3 ([5]; pH 8),−θmin × 10^3 ([5]; pH 8),random coil ([5]; pH 8),α helices ([5]; pH 8),β sheet ([5]; pH 8),−θ222 × 10^3 ([5]; pH 10),−θmin × 10^3 ([5]; pH 10),random coil ([5]; pH 10),other results
"C: CC protein, SEQ ID NO:1, variant of COMPcc; coiled-coil forming homopentamers (MRGSHHHHHHGSIEGRAPQMLRELQETNAALQDVRELLRQQVKEITFLKNTSKL)",not been observed to form fibers,16%,30%,54%,28%,38%,33%,,,,,,,,,,,,,,"average width of protein fibers ([3]; 20 mM protein, 100 mM curcumin, 12 hours): 19.24±12 μm; binding to small molecule (curcumin fluorescence) [4]: substantially increase the binding to small molecule"
"L: L44 protein, SEQ ID NO:3, variant of COMPcc; negative control swap protein (MRGSHHHHHHGSIEGRLQDVERLLRQQVKEITFLKNTAPQMLRELQETNAASKL) [reference compound]",not been observed to form fibers,,,,,,,−0.41 10^3 deg cm^2 dmol^-1,5.18 10^3 deg cm^2 dmol^-1,43%,9%,49%,3.54 10^3 deg cm^2 dmol^-1,4.14 10^3 deg cm^2 dmol^-1,49%,13%,38%,3.40 10^3 deg cm^2 dmol^-1,3.89 10^3 deg cm^2 dmol^-1,52%,α helices ([5]; pH 10): 16%; β sheet ([5]; pH 10): 32%; fiber formation seen by confocal microscopy [3]: No fibers were seen
"Qx: variant of Q54 void of the 6×his tag, SEQ ID NO:6 (VKEITFLKNTAPQMLRELQETNAALQDVRELLRQQSKL)",,20%,48%,32%,29%,45%,26%,,,,,,,,,,,,,,
B1,,,,,,,,13.18 10^3 deg cm^2 dmol^-1,13.02 10^3 deg cm^2 dmol^-1,32%,50%,18%,18.28 10^3 deg cm^2 dmol^-1,17.61 10^3 deg cm^2 dmol^-1,30%,64%,6%,17.84 10^3 deg cm^2 dmol^-1,17.13 10^3 deg cm^2 dmol^-1,31%,"ΔH° (van't Hoff enthalpy) ([6]; pH 4): -125 kJ/mol; Tm ([6]; pH 4): 48.2 °C; ΔG° (free energy of folding) ([6]; pH 4): -9.2 kJ/mol; ΔS° ([6]; pH 4): -93 cal/(mol·K); ΔH° (van't Hoff enthalpy) ([6]; pH 8): -130 kJ/mol; Tm ([6]; pH 8): 48.8 °C; ΔG° (free energy of folding) ([6]; pH 8): -9.62 kJ/mol; ΔS° ([6]; pH 8): -96.6 cal/(mol·K); ΔH° (van't Hoff enthalpy) ([6]; pH 10): -125 kJ/mol; Tm ([6]; pH 10): 46.3 °C; ΔG° (free energy of folding) ([6]; pH 10): -8.37 kJ/mol; ΔS° ([6]; pH 10): -93.3 cal/(mol·K); fiber diameters ([1]; pH 8, 10 mM PB): 17±3 nm; α helices ([5]; pH 10): 63%; β sheet ([5]; pH 10): 6%; width of fibers ([3]; 12 hours): 12.72 μm; fiber diameters (known) [7]: 10-15 nm"
